Molecular target: T1, TRPM2 interaction with GluN2b (Rattus norvegicus, UniProt Q00960)
T1 construct: TRPM2 plasmid a gift 17928; 17924; 17925; host or cells: HEK293T
Test: Co-IP of TRPM2 with GluN2b in co-transfected HEK293T cells
Assay type: cell-based, human
Details: 10 μM peptide overnight; IP anti-GluN2b, WB anti-Flag
Description: FIGS. 5A and 5B show the effects of TAT-EE3 on interaction of TRPM2 and NMDARs. Co-IP tests of NMDARs with WT or EE3 domain mutants of TRPM2 (Flag-tagged) in co-transfected HEK293T cells. WT TRPM2 groups were treated with 10 μM TAT-SC or TAT-EE3 overnight. Lysates were IP's with anti-GluN2a (FIG. 5A) or anti-GluN2b (FIG. 5B), and probed by WBs with anti-Flag. IgG was used as control for IP. Similar to the mutants TRPM2-ΔEE3 and TRPM2-EQE, TAT-EE3 disrupted TRPM2 interaction with GluN2a and GluN2b.
were ordered from GenScript Biotech, and dissolved in PBS to make a stock concentration at 10 mM. HEK-293T cells or isolated neurons were treated with TAT-SC or TAT-EE3 at a concentration of 10 μM for at least 8 h prior to use. Mice were injected with TAT-SC or TAT-EE3 intraperitoneally (ip) at a dose of 100 nmol/kg. […]
NP-40 lysis buffer ([…], 150 mM NaCl, 1 mM EDTA, 50 mM Tris, pH=8.0) containing proteinase inhibitors (Sigma-Aldrich, 539131-10VL) and phosphatase inhibitors (Thermal Fisher Scientific, 78428) was used to lyse both cultured cells and frozen brain tissue. […] Protein concentration was measured using Pierce™ Rapid Gold BCA Protein Assay Kit (Thermal Fisher Scientific, A53225). […] Then samples were ready for western blotting analysis.

T1 sequence (Q00960 27-1482, other chains not shown): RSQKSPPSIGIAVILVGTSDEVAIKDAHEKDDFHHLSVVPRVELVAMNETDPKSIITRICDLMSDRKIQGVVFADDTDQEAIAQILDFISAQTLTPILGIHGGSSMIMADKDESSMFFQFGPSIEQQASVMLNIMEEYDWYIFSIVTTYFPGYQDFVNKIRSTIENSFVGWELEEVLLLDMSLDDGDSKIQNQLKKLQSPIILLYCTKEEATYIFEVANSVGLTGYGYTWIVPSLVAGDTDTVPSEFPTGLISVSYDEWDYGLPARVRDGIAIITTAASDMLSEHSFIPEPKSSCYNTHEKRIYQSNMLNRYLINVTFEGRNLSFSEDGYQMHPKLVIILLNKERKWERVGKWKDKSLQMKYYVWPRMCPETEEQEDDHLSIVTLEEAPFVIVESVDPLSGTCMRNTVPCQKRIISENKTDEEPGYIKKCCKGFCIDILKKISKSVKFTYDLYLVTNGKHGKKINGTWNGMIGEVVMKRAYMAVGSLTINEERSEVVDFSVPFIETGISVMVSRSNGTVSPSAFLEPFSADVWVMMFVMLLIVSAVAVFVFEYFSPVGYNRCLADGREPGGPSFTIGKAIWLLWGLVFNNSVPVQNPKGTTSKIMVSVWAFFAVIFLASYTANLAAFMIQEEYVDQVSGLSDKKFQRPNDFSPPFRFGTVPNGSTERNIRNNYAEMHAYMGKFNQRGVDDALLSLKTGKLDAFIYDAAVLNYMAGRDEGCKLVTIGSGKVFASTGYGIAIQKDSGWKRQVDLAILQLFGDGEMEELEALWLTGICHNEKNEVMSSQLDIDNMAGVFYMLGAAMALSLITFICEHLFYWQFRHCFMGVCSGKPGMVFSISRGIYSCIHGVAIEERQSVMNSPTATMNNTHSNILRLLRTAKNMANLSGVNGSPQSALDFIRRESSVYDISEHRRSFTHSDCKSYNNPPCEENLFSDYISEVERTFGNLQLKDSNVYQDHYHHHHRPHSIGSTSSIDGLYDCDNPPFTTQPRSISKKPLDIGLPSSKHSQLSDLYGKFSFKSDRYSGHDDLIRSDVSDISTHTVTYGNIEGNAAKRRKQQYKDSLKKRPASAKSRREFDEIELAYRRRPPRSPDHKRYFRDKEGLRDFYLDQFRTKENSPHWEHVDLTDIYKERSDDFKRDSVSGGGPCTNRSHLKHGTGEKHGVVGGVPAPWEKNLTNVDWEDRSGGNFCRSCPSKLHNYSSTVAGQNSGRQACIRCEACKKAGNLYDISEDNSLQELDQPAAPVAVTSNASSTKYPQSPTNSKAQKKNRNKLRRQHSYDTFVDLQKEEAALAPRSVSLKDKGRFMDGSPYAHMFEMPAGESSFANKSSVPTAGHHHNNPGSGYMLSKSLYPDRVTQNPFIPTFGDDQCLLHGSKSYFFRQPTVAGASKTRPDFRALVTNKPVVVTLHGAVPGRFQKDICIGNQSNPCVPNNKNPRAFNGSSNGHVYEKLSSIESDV

Question: Which “interaction of TRPM2 with GluN2b (co-IP)” value does the source give for “TAT-EE3: membrane permeable disrupting peptide, sequence YGRKKRRQRRREEDTDSSEEMLALAEE (SEQ ID NO: 4)” here?
Answer: completely disrupted

Source: patent US20250235501A1, “Methods and Compositions for Treating or Preventing Neurological Injury or Neurological Disorders” (University of Connecticut, priority 2024, published 2025)
